Experimental data: paper PMC5318895, “Inhibition of N1-Src kinase by a specific SH3 peptide ligand reveals a role for N1-Src in neurite elongation by L1-CAM” (Scientific Reports, 2017)
No end group written: not given here.

Tests used:
[1] = tested on: cerebellar granule neurons; assay: neurite outgrowth of cultured cerebellar granule neurons (polyLys); format: cell-based, rat; details: n = 3 experiments, 30 cells per condition
Description: We next took advantage of the specificity of PDN1 to investigate the role of endogenous N1-Src in neurite outgrowth in cultured neurons. CFP-PDN1 or -PDN1(P5A) was transfected into 1 DIV CGNs and their morphology analysed after […]. During CGN development in vivo and immediately after plating in vitro, the cells grow two processes before polarising to yield a single axon and the second process retracts to become a dendrite and further dendrites are initiated. The axon then extends further before bifurcating. […] To further confirm that N1-Src regulates neurite growth we employed an shRNA expressing plasmid (pSUPER-GFP) to knockdown N1-Src in neurons. […] The successful N1-Src shRNA plasmid was transfected into hippocampal neurons, and the length of the longest neurite in GFP-positive neurons was assessed at 48 h and 96 h post-transfection. […] Thus, perturbing N1-Src activity with PDN1 or knockdown of the protein produces the same neurite phenotype in primary neuronal cultures.
Figure 4 PDN1 inhibits neurite growth in cultured neurons. (a) Cultured cerebellar granule neurons were transfected 24 h after plating with CFP, CFP-PDN1 or CFP-PDN1(P5A) for 48 h prior to fixing and processing for immunofluorescence. Scale bar = 10 μm. (b,c) Length of longest neurite and branches per longest neurite were quantified using the NeuronJ plugin for ImageJ. Data were plotted as mean ± SEM, n = 3 experiments with 30 cells analysed per condition for each experiment. Statistical analysis was performed by one way ANOVA and post-hoc Tukey test (*P < 0.05; ***P < 0.001; n.s = not significant).
COS7 cells were plated at a density of 3 × 10^4 cells per well of a 24 well plate or 10^5 cells per well of a 6 well plate and transfected using EcoTransfect 24 h after plating according to the manufacturer’s instructions (Oz Biosciences, Marseille, France). […]
(§1) Analysis of COS7 cell area was performed with ImageJ software. The NeuronJ plugin[43] was used for the quantification of process length and branching in both COS7 cells and neurons. […]

N1-Src [2] = biological target: T1, N1-Src (Rattus norvegicus, UniProt Q9WUD9); assay: morphology of COS7 cells transfected with N1-Src-FLAG; format: cell-based; details: for effect on N1-Src-induced shrinkage of the cell soma (cell area) / effect on number of neurites (processes) per cell: COS7, co-transfection with N1-Src-FLAG 48 h, mean, n = 3 experiments, one way ANOVA
Description: (§2) Previous studies have shown that soluble SH3 ligands can enhance Src family kinase activity in vitro[20][21]. […] This experiment raised the possibility that PDN1 could act as an N1-Src inhibitor in cells. […] We observed that COS7 cells transfected with N1-Src-FLAG underwent a striking change in morphology within 48 h (Fig. 3a). Similar to that previously observed in Xenopus epithelial cells, overexpression of the kinase induced the growth of neurite-like processes (Fig. 3b) and an approximate 35% reduction in area of the cell soma (Fig. 3c). […] Using cell morphology as a readout, we assessed the effect of CFP-PDN1 and PDN1(P5A) on N1-Src activity in cells. […] Furthermore, the peptides had no significant effect upon the morphology of C-Src transfected cells. We also assessed the effect of PDN1 on N2-Src expressing cells because the first five amino acids of its SH3 insert are identical to that in N1-Src[3].
Figure 3 CFP-PDN1 inhibits the biological activity of N1-Src in cells. (a) COS7 cells were transfected for 48 h with empty plasmid (FLAG), C-, N1- or N2-Src-FLAG in combination with CFP, CFP-PDN1 or CFP-PDN1(P5A) and processed for immunofluorescence (green = CFP, red = Src-FLAG). Scale bar = 10 μm. Twenty representative fields of view (~50 cells) per condition in each experiment were analysed to quantify (b) number of processes per cell and (c). Data were plotted as mean ± SEM (n = 3 experiments). Statistical analysis was performed by one way ANOVA and post-hoc Tukey test (*P < 0.05; ***P < 0.001; n.s = not significant).
COS7 cells were plated at a density of 3 × 10^4 cells per well of a 24 well plate or 10^5 cells per well of a 6 well plate and transfected using EcoTransfect 24 h after plating according to the manufacturer’s instructions (Oz Biosciences, Marseille, France). Rat cerebellar granule and hippocampal neurons were prepared as previously described[40][41] and approved by the Biology Ethics Committee, University of York. The animals were euthanised according to Schedule 1 of the UK Home Office Animals (Scientific Procedures) Act. Neurons were plated at a density of 2.5 × 10^5 cells per coverslip and transfected after 24 h using a calcium phosphate kit (Promega, Southampton, UK) or Lipofectamine2000 (Invitrogen, Paisley UK) according to the manufacturer’s instructions. Following transfection the medium was replaced with MEM culture medium with 10 μM arabinofuranosyl cytidine for the indicated time before fixing for staining and morphological analysis. For L1-CAM assays, a 10 μl droplet containing 25 μg/ml L1-CAM extracellular domain (R&D Systems) and 1 mg/ml fluorescein isothiocyanate (FITC) was spotted onto the centre of a poly-D-lysine coated coverslip and air dried for 1 h prior to plating neurons.
Analysis of COS7 cell area was performed with ImageJ software. The NeuronJ plugin[43] was used for the quantification of process length and branching in both COS7 cells and neurons. Where appropriate, statistical analyses of the data were performed with SigmaPlot software using one way ANOVA or Kruskal-Wallis tests with post-hoc pairwise comparisons by Tukey or Dunn tests respectively.

N2-Src = assay: morphology of COS7 cells transfected with N2-Src-FLAG; format: cell-based; details: COS7, co-transfection with N2-Src-FLAG 48 h; n = 3 experiments
Description: as §2
Figure 3 CFP-PDN1 inhibits the biological activity of N1-Src in cells. […] Twenty representative fields of view (~50 cells) per condition in each experiment were analysed to quantify (b) number of processes per cell and (c). […]
as §1

N1-Src [3] = biological target: T1, N1-Src; assay: co-immunoprecipitation of N1-Src-FLAG and CFP-PDN1 from COS7 cells; format: binding; parameters: His; made in house; host or cells: E. coli; details: COS7 cells co-transfected with N1-Src-FLAG, lysed after 48 h; anti-FLAG IP, anti-GFP detection
[4] = tested on: cerebellar granule neurons; assay: L1-CAM-dependent neurite elongation in cultured cerebellar granule neurons; format: cell-based, rat; details: n = 3 experiments
From the text: A previous study of Src^−/− mice provided a possible mechanism for the effects of N1-Src upon neurite development. […] Src^−/− mice lack C-, N1- and N2-Src, but the isoform responsible for the impaired neurite outgrowth on L1-CAM was not identified in the study. We therefore investigated whether PDN1 affects L1-CAM-dependent neurite growth in cultured CGNs. Recombinant L1-CAM extracellular domain mixed with the fluorescent dye FITC were spotted in the centre of poly-D-lysine (polyLys) coated glass coverslips (Fig. 6a). CGNs were then plated over the whole surface of the coverslip, allowing a direct comparison between neurons growing on L1-CAM and polyLys.
Figure 6 PDN1 inhibits neurite elongation mediated by L1-CAM. (a) Schematic of the poly-D-lysine (polyLys) coated coverslips treated with a droplet of L1-CAM and FITC. […] (b) Cultured cerebellar granule neurons transfected with CFP were grown on the indicated concentrations of L1-CAM and the length of the longest neurite (axon) determined. (c,d) CGNs were plated on polyLys coated coverslips with a region of […] L1-CAM (see a) and transfected after 24 h with CFP (control) or CFP-PDN1 for 48 h prior to fixing and processing for fluorescence microscopy. Length of longest neurite (c) and branches on the longest neurite (d) were quantified for neurons in the polyLys or L1-CAM regions using the NeuronJ plugin for ImageJ. All data were plotted as mean ± SEM, n = 3 experiments with 30 cells analysed per condition for each experiment. Statistical analysis was performed by one way ANOVA and post-hoc Tukey test (*P < 0.05; **P < 0.01; n.s = not significant).
Using a concentration of 25 μg/ml L1-CAM, which induced a 50% increase in neurite length, we then determined the effect of CFP-PDN1 transfection on neurite length on L1-CAM or polyLys. […]
as §1

N1-Src [5] = biological target: T1, N1-Src; assay: inhibition of N1-Src phosphorylation of GST-Y by free soluble peptide; format: biochemical; parameters: His; made in house; host or cells: E. coli; details: free soluble peptide titrated with 5 nM N1-Src and GST-Y; phosphotyrosine immunoblot densitometry; n = 3
Description: Previous studies have shown that soluble SH3 ligands can enhance Src family kinase activity in vitro[20][21]. […] This experiment raised the possibility that PDN1 could act as an N1-Src inhibitor in cells. […] We observed that COS7 cells transfected with N1-Src-FLAG underwent a striking change in morphology within 48 h (Fig. 3a). Similar to that previously observed in Xenopus epithelial cells, overexpression of the kinase induced the growth of neurite-like processes (Fig. 3b) and an approximate 35% reduction in area of the cell soma (Fig. 3c). […] Using cell morphology as a readout, we assessed the effect of CFP-PDN1 and PDN1(P5A) on N1-Src activity in cells. […] We also assessed the effect of PDN1 on N2-Src expressing cells because the first five amino acids of its SH3 insert are identical to that in N1-Src[3].
Figure 2 PDN1 inhibits N1-Src activity in vitro. GST-Y was incubated with 5 nM N1-Src and the indicated concentrations of either PDN1 or PDN1(P5A) and the extent of phosphorylation determined by densitometry of phosphotyrosine immunoreactivity. […]
Phosphorylation reactions were performed as previously described, prepared in kinase reaction buffer (100 mM Tris, 10 mM MgCl2, pH 7.5) and initiated by the addition of pre-warmed ATP (0.5 mM final concentration) and incubated at 30 °C for the indicated times. […] Due to the non-quantitative measurement of V, Vmax was not determined. […]

[6] = CGNs transfected with CFP fusions, one way ANOVA

Molecule: CFP-PDN1: PDN1 fused to CFP, expressed in transfected cells (WHRMPAYTAKYP; also: fused to CFP, end not given here)
- inhibition of mean length of longest neurite on polyLys ([1]; CGNs grown on polyLys, transfected 24 h after plating, 48 h): approximately 40%
- branches per longest neurite [1, 6]: longest neurite branching was inhibited
- length of longest neurite [1, 6]: reduced in length
- effect on N1-Src-induced shrinkage of the cell soma (cell area) (N1-Src [2]): prevented both the shrinkage of the cell soma
- effect on number of neurites (processes) per cell (N1-Src [2]): reduced the number of neurites per cell
- selectivity for N1-Src in cells (N1-Src [2]; COS7, compared with C-Src and N2-Src): selective for the N1-Src splice variant in cells
- rescue of morphology of N2-Src transfected cells (N2-Src): did not rescue wild type morphology
- binding to N1-Src in cells (co-immunoprecipitation) (N1-Src [3]): can bind N1-Src in cells
- length of longest neurite on L1-CAM compared with polyLys ([4]; CFP-PDN1 transfected CGNs on L1-CAM (25 μg/ml in text), 48 h, 30 cells per condition): not significantly different to that on polyLys

Molecule: CFP-PDN1(P5A): PDN1(P5A) mutant fused to CFP, expressed in transfected cells (WHRMAAYTAKYP; also: fused to CFP, end not given here)
- effect on N1-Src-induced shrinkage of the cell soma (cell area) (N1-Src [2]): no significant effect on either parameter
- effect on number of neurites (processes) per cell (N1-Src [2]): no significant effect on either parameter
- binding to N1-Src in cells (co-immunoprecipitation) (N1-Src [3]): greatly reduced

Molecule: PDN1(P5A): PDN1(P5A) mutant peptide (WHRMAAYTAKYP)
- inhibition of GST-Y phosphorylation (N1-Src [5]): no significant inhibition

B1: L1-CAM: Recombinant L1-CAM extracellular domain (R&D Systems) (protein, UniProt P32004 20-1120, looked up)
extracellular domain: IQIPEEYEGHHVMEPPVITEQSPRRLVVFPTDDISLKCEASGKPEVQFRWTRDGVHFKPKEELGVTVYQSPHSGSFTITGNNSNFAQRFQGIYRCFASNKLGTAMSHEIRLMAEGAPKWPKETVKPVEVEEGESVVLPCNPPPSAEPLRIYWMNSKILHIKQDERVTMGQNGNLYFANVLTSDNHSDYICHAHFPGTRTIIQKEPIDLRVKATNSMIDRKPRLLFPTNSSSHLVALQGQPLVLECIAEGFPTPTIKWLRPSGPMPADRVTYQNHNKTLQLLKVGEEDDGEYRCLAENSLGSARHAYYVTVEAAPYWLHKPQSHLYGPGETARLDCQVQGRPQPEVTWRINGIPVEELAKDQKYRIQRGALILSNVQPSDTMVTQCEARNRHGLLLANAYIYVVQLPAKILTADNQTYMAVQGSTAYLLCKAFGAPVPSVQWLDEDGTTVLQDERFFPYANGTLGIRDLQANDTGRYFCLAANDQNNVTIMANLKVKDATQITQGPRSTIEKKGSRVTFTCQASFDPSLQPSITWRGDGRDLQELGDSDKYFIEDGRLVIHSLDYSDQGNYSCVASTELDVVESRAQLLVVGSPGPVPRLVLSDLHLLTQSQVRVSWSPAEDHNAPIEKYDIEFEDKEMAPEKWYSLGKVPGNQTSTTLKLSPYVHYTFRVTAINKYGPGEPSPVSETVVTPEAAPEKNPVDVKGEGNETTNMVITWKPLRWMDWNAPQVQYRVQWRPQGTRGPWQEQIVSDPFLVVSNTSTFVPYEIKVQAVNSQGKGPEPQVTIGYSGEDYPQAIPELEGIEILNSSAVLVKWRPVDLAQVKGHLRGYNVTYWREGSQRKHSKRHIHKDHVVVPANTTSVILSGLRPYSSYHLEVQAFNGRGSGPASEFTFSTPEGVPGHPEALHLECQSNTSLLLRWQPPLSHNGVLTGYVLSYHPLDEGGKGQLSFNLRDPELRTHNLTDLSPHLRYRFQLQATTKEGPGEAIVREGGTMALSGISDFGNISATAGENYSVVSWVPKEGQCNFRFHILFKALGEEKGGASLSPQYVSYNQSSYTQWDLQPDTDYEIHLFKERMFRHQMAVKTNGTGRVRLPPAGFATE
modifications: extracellular domain
- increase in neurite length by L1-CAM ([4]; 25 μg/ml L1-CAM coating, CFP-transfected CGNs): 50%
- neurite outgrowth on L1-CAM ([4]; CFP-transfected CGNs on indicated L1-CAM concentrations): increases neurite outgrowth in a dose dependent manner
